For the first assay, the target named is calcitonin receptor. The assay is described as follows: cell-based or functional assay.
Sequence of neuropeptide Y2 receptor (P49146 whole entry): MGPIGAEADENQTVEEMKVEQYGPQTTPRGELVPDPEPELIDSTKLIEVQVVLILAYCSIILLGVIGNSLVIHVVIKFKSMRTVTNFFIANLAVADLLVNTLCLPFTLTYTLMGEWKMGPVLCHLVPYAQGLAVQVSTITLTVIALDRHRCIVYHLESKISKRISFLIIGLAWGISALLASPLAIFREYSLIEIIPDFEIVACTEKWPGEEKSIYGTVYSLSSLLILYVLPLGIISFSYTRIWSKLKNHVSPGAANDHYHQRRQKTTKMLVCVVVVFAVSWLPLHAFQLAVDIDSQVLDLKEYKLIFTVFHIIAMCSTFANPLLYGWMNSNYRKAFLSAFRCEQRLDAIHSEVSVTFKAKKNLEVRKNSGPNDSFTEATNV
Sequence of calcitonin receptor (P30988 whole entry): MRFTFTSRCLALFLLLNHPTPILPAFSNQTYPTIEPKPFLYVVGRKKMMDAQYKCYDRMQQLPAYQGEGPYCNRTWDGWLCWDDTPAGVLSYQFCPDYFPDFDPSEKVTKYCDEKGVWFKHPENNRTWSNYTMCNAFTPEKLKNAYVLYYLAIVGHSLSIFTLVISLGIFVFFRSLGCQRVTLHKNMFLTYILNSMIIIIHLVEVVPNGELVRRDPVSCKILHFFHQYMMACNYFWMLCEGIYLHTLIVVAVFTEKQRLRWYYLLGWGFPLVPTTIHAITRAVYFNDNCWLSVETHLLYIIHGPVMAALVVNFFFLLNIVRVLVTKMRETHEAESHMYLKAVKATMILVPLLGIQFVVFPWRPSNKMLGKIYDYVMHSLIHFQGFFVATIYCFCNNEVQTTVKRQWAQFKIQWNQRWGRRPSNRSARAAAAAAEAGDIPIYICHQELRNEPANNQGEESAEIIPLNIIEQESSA
Consider “[#NH-Cys-(bAla)-PYY-(3-36), amide] [#Suc-(bAla)-PYY-(3-36), amide] (peptide; modification not given)”, for which the CT cyclase turned out to be 2270.

The target of a further assay is calcitonin receptor. The assay can be described thus: calcitonin receptor binding assay.
For the substance “[#NH-Cys-(bAla)-PYY-(3-36), amide] [#Suc-(bAla)-PYY-(3-36), amide] (peptide; modification not given)”, the Receptor Binding came to 643.

Another assay has as its target neuropeptide Y2 receptor (UniProt P49146). The assay is described as follows: [125I]-human PYY displacement, SK-N-BE membranes.
In the case of “[#Cys-Gly-Gly-PYY (3-36), amide] [Asp(#)-Pro-Pro-Pro-Pro-Pro-Pro-PYY (3-36), amide] (peptide)”, the Receptor Binding is 0.8.

Turning to “[#Cys-Gly-Gly-PYY (3-36), amide] [Asp(#)-miniPEG3-Gly-PYY (3-36), amide] (peptide)”, the Receptor Binding came out at 0.8.

For the substance “[#Des-Lys1 Compound 10, amide] (Asp(#)-Pro-Pro-Pro-Pro-Pro-Pro-PYY (3-36), amide (peptide)”, the Receptor Binding was 0.5.

Take “[#NH-Cys-(bAla)-PYY-(3-36), amide] [#Suc-(bAla)-PYY-(3-36), amide] (peptide)”: the Receptor Binding came to 1.2.

In turn, “[#Suc-(bAla)-PYY-(3-36), amide] [#NH-Des-Lys1-Rat Amylin, amide] (peptide)” yielded a Receptor Binding of 0.39.

As to “[Asp(#)-miniPEG-Gly-PYY (3-36), amide] [#Cys-Gly-Gly-PYY (3-36), amide] (peptide)”, the Receptor Binding is 0.8.

In turn, Human NPY (peptide) gave a Receptor Binding of 0.2.

“[Ac-alpha-MSH-bAla-bAla-PYY-(3-36); amide] (peptide)” yielded a Receptor Binding of 0.2.

Another assay deals with CGRP receptor (Homo sapiens (Human)) (UniProt Q16602). The assay is described as follows: 125I-hCGRP displacement, SK-N-MC membranes.
Substance Rat amylin (peptide) registered a Receptor Binding of 21.

Substance “27(p-CH2SO3)-PheCCK8(26-33),G,K,R,15Glu,hAmy(1-17),18Arg,sCT(18-26),hAmy(32-37) (peptide)” had a Receptor Binding of 4.4.

Values taken from EP2330125A2.
